From IntAct's records for PubMed 9389648

B1: Mothers against decapentaplegic homolog 2 (Homo sapiens), Q15796 (parent)
chain: MSSILPFTPPVVKRLLGWKKSAGGSGGAGGGEQNGQEEKWCEKAVKSLVKKLKKTGRLDELEKAITTQNCNTKCVTIPSTCSEIWGLSTPNTIDQWDTTGLYSFSEQTRSLDGRLQVSHRKGLPHVIYCRLWRWPDLHSHHELKAIENCEYAFNLKKDEVCVNPYHYQRVETPVLPPVLVPRHTEILTELPPLDDYTHSIPENTNFPAGIEPQSNYIPETPPPGYISEDGETSDQQLNQSMDTGSPAELSPTTLSPVNHSLDLQPVTYSEPAFWCSIAYYELNQRVGETFHASQPSLTVDGFTDPSNSERFCLGLLSNVNRNATVEMTRRHIGRGVRLYYIGGEVFAECLSDSAIFVQSPNCNQRYGWHPATVCKIPPGCNLKIFNNQEFAALLAQSVNQGFEAVYQLTRMCTIRMSFVKGWGAEYRRQTVTSTPCWIELHLNGPLQWLDKVLTQMGSPSVRCSSMS
partner: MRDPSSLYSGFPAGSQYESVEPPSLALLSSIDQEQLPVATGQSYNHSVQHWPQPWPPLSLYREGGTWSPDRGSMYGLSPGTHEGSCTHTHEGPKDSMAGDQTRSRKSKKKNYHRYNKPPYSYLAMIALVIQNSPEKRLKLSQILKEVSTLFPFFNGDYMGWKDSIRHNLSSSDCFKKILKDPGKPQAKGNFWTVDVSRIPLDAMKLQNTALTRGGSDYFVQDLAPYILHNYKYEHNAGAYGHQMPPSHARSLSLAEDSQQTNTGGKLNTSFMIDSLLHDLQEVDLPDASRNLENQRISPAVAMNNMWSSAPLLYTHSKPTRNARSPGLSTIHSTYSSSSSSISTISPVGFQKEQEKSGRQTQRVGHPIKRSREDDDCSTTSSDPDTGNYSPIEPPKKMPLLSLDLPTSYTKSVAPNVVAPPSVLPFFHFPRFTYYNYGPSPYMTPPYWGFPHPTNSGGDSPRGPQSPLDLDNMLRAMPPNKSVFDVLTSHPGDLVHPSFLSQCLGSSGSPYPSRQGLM

Variants of: B1
Settings: with foxh1_xenla foxh1, P70056

| Variant | effect of a mutation on the interaction |
| --- | --- |
| S464A;S465A;S467A | disrupting interaction |
| D450E | disrupting interaction |
